Measured values as given in publication PMC11650997 (Journal of Virology, 2024).

Legend:
[1] = biological target: T1, SARS-CoV-2 S protein ectodomain trimer, prefusion conformation, insect cell-expressed (SARS-CoV-2 Wuhan-Hu-1 (MN908947), UniProt P0DTC2, stabilised); assay: SPR; […] (100 nM, 30 s) […]; 1:1 Langmuir fit; settings: both partners purified
T1 construct: also called S trimer; trimeric S protein

[2] = biological target: T2, SARS-CoV-2 S protein ectodomain trimer in prefusion conformation (insect cell-expressed) (SARS-CoV-2 Wuhan-Hu-1 (MN908947), UniProt P0DTC2, stabilised); assay: SPR; […] (100 nM) […]; 1:1 Langmuir fit; settings: both partners purified
T2 construct: also called trimeric SARS-CoV-2 S protein; S trimer

B1: pT1616 (human monoclonal antibody, IgG1) (antibody, V domains shown)
VH: QVQLVQSGAEVKKPGSSVKVSCKASGGTFSSYTISWVRQAPGQGLECMGRIIPILGIANYAQKFQGRVTITADKSTSIAYMEVSSLRSEDTAVYYCATEVGYSGYGSAEYFNHWGQGTPVTVSS
VL: QSVLTQPPSVSGAPGQRVTISCTGSNSNIGAGYDVHWYQQLPGTAPKLLIYANNNRPSGVPDRFSGSRSGTSASLVITGLQADDEADYYCQSYDSSLTGSLFGGGTKLTVL
notes: also called bnAb pT1616; nAb pT1616; source: HEK293ExPi, transfected, purified from the supernatant (Protein G, SEC)
- Kd [1]: 0.083 nM
- koff [1]: 6.9e-05 s⁻¹
- kon [1]: 840000 M⁻¹ s⁻¹

B2: pT1616 IgG1 (antibody, V domains shown)
VH: QVQLVQSGAEVKKPGSSVKVSCKASGGTFSSYTISWVRQAPGQGLECMGRIIPILGIANYAQKFQGRVTITADKSTSIAYMEVSSLRSEDTAVYYCATEVGYSGYGSAEYFNHWGQGTPVTVSS
VL: QSVLTQPPSVSGAPGQRVTISCTGSNSNIGAGYDVHWYQQLPGTAPKLLIYANNNRPSGVPDRFSGSRSGTSASLVITGLQADDEADYYCQSYDSSLTGSLFGGGTKLTVL
notes: also called bnAb pT1616; nAb pT1616; source: HEK293ExPi, transfected, purified from supernatant (Protein G, SEC)
- fold lower KD for the S trimer than for the monomeric RBD [2]: > 3 fold
